Measurements from US10618965 (dated 2020).

T1: human FcgRIIa(R) (human)
T1 chain: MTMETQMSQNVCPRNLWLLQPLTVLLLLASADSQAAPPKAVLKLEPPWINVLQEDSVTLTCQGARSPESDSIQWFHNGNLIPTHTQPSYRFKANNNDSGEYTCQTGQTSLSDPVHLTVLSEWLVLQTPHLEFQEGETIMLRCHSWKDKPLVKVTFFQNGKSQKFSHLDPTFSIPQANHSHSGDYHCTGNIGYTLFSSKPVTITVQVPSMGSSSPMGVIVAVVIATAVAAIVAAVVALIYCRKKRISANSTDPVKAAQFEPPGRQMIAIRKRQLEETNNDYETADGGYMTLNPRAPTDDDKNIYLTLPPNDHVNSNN

T2: human FcgRIIb (human)
T2 chain: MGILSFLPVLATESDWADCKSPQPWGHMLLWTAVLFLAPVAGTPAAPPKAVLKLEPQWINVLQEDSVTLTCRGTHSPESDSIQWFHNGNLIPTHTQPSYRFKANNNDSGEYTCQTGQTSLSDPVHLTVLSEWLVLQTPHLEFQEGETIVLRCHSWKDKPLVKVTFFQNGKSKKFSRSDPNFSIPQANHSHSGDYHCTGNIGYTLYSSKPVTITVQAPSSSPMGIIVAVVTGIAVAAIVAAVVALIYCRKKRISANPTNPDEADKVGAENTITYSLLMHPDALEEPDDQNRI


Columns and labels:
Assay in all cases: SPR
[1] = molecular target: human FcgRIa (human)
[2] = molecular target: T1, human FcgRIIa(R)
[3] = molecular target: T2, human FcgRIIb

human FcgRIa (human), sequence (chain, as listed by the source): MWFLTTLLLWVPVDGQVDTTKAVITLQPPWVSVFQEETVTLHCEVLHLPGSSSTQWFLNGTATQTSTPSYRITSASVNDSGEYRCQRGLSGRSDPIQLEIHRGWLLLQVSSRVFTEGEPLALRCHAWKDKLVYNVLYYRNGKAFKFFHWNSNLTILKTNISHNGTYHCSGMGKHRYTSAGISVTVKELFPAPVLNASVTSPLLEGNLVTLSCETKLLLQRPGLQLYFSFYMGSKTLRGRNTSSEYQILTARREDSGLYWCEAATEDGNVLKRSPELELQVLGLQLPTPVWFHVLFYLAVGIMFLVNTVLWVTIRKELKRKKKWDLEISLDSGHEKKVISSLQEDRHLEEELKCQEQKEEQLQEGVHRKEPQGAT

Kd [1] [nM]	Kd [2] [µM]	Kd [3] [nM]	Binder
10	2.6		IL6R-BP182 (antibody) chain 1: QVQLQESGPGLVKPSETLSLTCAVSGHSISHDHAWSWVRQPPGEGLEWIGFISYSGITNYNPSLQGRVTISRDNSKNTLYLQMNSLRAEDTAVYYCARSLARTTAMDYWGEGTLVTVSSASTKGPSVFPLAPSSKSTSGGTAALGCLVKDYFPEPVTVSWNSGALTSGVHTFPAVLQSSGLYSLSSVVTVPSSSLGTQTYICNVNHKPSNTKVDKKVEPKSCDKTHTCPPCPAPDLLGGDSVFLFPPKPKDTLMISRTPEVTCVVVDVSHEDGEVKFNWYVDGVEVHNAKTKPREEQDNSTYRVVSVLTVLHQDWLNGKEYKCKVSNKALPKPIEKTISKAKGQPREPQVYTLPPSRDELTKNQVSLTCLVKGFYPSDIAVEWESNGQPENNYKTTPPVLDSDGSFFLYSKLTVDKSRWQQGNVFSCSVMHEALHNHYTQESLSLSP chain 2: DIQMTQSPSSLSASVGDRVTITCRASQDISSYLNWYQQKPGKAPKLLIYYTSRLHSGVPSRFSGSGSGTDFTFTISSLQPEDIATYYCQQGNTLPYTFGQGTKVEIK
320		31	IL6R-BP150 (antibody) chain 1: QVQLQESGPGLVKPSETLSLTCAVSGHSISHDHAWSWVRQPPGEGLEWIGFISYSGITNYNPSLQGRVTISRDNSKNTLYLQMNSLRAEDTAVYYCARSLARTTAMDYWGEGTLVTVSSASTKGPSVFPLAPSSKSTSGGTAALGCLVKDYFPEPVTVSWNSGALTSGVHTFPAVLQSSGLYSLSSVVTVPSSSLGTQTYICNVNHKPSNTKVDKKVEPKSCDKTHTCPPCPAPEYLGDDSVFLFPPKPKDTLMISRTPEVTCVVVDVSHEDPEVKFNWYVDGVEVHNAKTKPREEQYNSTYRVVSVLTVLHQDWLNGKEYKCKVSNAALPKPIEKTISKAKGQPREPQVYTLPPSRDELTKNQVSLTCLVKGFYPSDIAVEWESNGQPENNYKTTPPVLDSDGSFFLYSKLTVDKSRWQQGNVFSCSVMHEALHNHYTQESLSLSP chain 2: DIQMTQSPSSLSASVGDRVTITCRASQDISSYLNWYQQKPGKAPKLLIYYTSRLHSGVPSRFSGSGSGTDFTFTISSLQPEDIATYYCQQGNTLPYTFGQGTKVEIK

More lines, now with the values behind:

Binder	Kd [1] [nM]	Kd [2] [µM]	Kd [3] [nM]
IL6R-BP084 (antibody) chain 1: QVQLQESGPGLVKPSETLSLTCAVSGHSISHDHAWSWVRQPPGEGLEWIGFISYSGITNYNPSLQGRVTISRDNSKNTLYLQMNSLRAEDTAVYYCARSLARTTAMDYWGEGTLVTVSSASTKGPSVFPLAPSSKSTSGGTAALGCLVKDYFPEPVTVSWNSGALTSGVHTFPAVLQSSGLYSLSSVVTVPSSSLGTQTYICNVNHKPSNTKVDKKVEPKSCDKTHTCPPCPAPELLGGDSVFLFPPKPKDTLMISRTPEVTCVVVDVSHEDPEVKFNWYVDGVEVHNAKTKPREEQYNSTYRVVSVLTVLHQDWLNGKEYKCKMSNKALPKPIEKTISKAKGQPREPQVYTLPPSRDELTKNQVSLTCLVKGFYPSDIAVEWESNGQPENNYKTTPPVLDSDGSFFLYSKLTVDKSRWQQGNVFSCSVMHEALHNHYTQESLSLSP chain 2: DIQMTQSPSSLSASVGDRVTITCRASQDISSYLNWYQQKPGKAPKLLIYYTSRLHSGVPSRFSGSGSGTDFTFTISSLQPEDIATYYCQQGNTLPYTFGQGTKVEIK	7	7.2	500
IL6R-2B253 (antibody) chain 1: QVQLQESGPGLVKPSETLSLTCAVSGHSISHDHAWSWVRQPPGEGLEWIGFISYSGITNYNPSLQGRVTISRDNSKNTLYLQMNSLRAEDTAVYYCARSLARTTAMDYWGEGTLVTVSSASTKGPSVFPLAPSSKSTSGGTAALGCLVKDYFPEPVTVSWNSGALTSGVHTFPAVLQSSGLYSLSSVVTVPSSSLGTQTYICNVNHKPSNTKVDKKVEPKSCDKTHTCPPCPAPDLLGGDSVFLFPPKPKDTLMISRTPEVTCVVVDVSHEDPEVKFNWYVDGVEVHNAKTKPREEQYNSTYRVVSVLTVLHQDWLNGKEYKCKMSNKALPAPIEKTISKAKGQPREPQVYTLPPSRDELTKNQVSLTCLVKGFYPSDIAVEWESNGQPENNYKTTPPVLDSDGSFFLYSKLTVDKSRWQQGNVFSCSVMHEALHNHYTQESLSLSP chain 2: DIQMTQSPSSLSASVGDRVTITCRASQDISSYLNWYQQKPGKAPKLLIYYTSRLHSGVPSRFSGSGSGTDFTFTISSLQPEDIATYYCQQGNTLPYTFGQGTKVEIK	1.4	5	
IL6R-2B261 (antibody) chain 1: QVQLQESGPGLVKPSETLSLTCAVSGHSISHDHAWSWVRQPPGEGLEWIGFISYSGITNYNPSLQGRVTISRDNSKNTLYLQMNSLRAEDTAVYYCARSLARTTAMDYWGEGTLVTVSSASTKGPSVFPLAPSSKSTSGGTAALGCLVKDYFPEPVTVSWNSGALTSGVHTFPAVLQSSGLYSLSSVVTVPSSSLGTQTYICNVNHKPSNTKVDKKVEPKSCDKTHTCPPCPAPDLLGGDSVFLFPPKPKDTLMISRTPEVTCVVVDVSHEDPEVKFNWYVDGVEVHNAKTKPREEQDNSTYRVVSVLTVLHQDWLNGKEYKCKVSNKALPAPIEKTISKAKGQPREPQVYTLPPSRDELTKNQVSLTCLVKGFYPSDIAVEWESNGQPENNYKTTPPVLDSDGSFFLYSKLTVDKSRWQQGNVFSCSVMHEALHNHYTQESLSLSP chain 2: DIQMTQSPSSLSASVGDRVTITCRASQDISSYLNWYQQKPGKAPKLLIYYTSRLHSGVPSRFSGSGSGTDFTFTISSLQPEDIATYYCQQGNTLPYTFGQGTKVEIK	9		1000
IL6R-BP133 (antibody) chain 1: QVQLQESGPGLVKPSETLSLTCAVSGHSISHDHAWSWVRQPPGEGLEWIGFISYSGITNYNPSLQGRVTISRDNSKNTLYLQMNSLRAEDTAVYYCARSLARTTAMDYWGEGTLVTVSSASTKGPSVFPLAPSSKSTSGGTAALGCLVKDYFPEPVTVSWNSGALTSGVHTFPAVLQSSGLYSLSSVVTVPSSSLGTQTYICNVNHKPSNTKVDKKVEPKSCDKTHTCPPCPAPDYLGGDSVFLFPPKPKDTLMISRTPEVTCVVVDVSHEDPEVKFNWYVDGVEVHNAKTKPREEQYNSTYRVVSVLTVLHQDWLNGKEYKCKVSNKALPKPIEKTISKAKGQPREPQVYTLPPSRDELTKNQVSLTCLVKGFYPSDIAVEWESNGQPENNYKTTPPVLDSDGSFFLYSKLTVDKSRWQQGNVFSCSVMHEALHNHYTQESLSLSP chain 2: DIQMTQSPSSLSASVGDRVTITCRASQDISSYLNWYQQKPGKAPKLLIYYTSRLHSGVPSRFSGSGSGTDFTFTISSLQPEDIATYYCQQGNTLPYTFGQGTKVEIK	130		560
IL6R-BP083 (antibody) chain 1: QVQLQESGPGLVKPSETLSLTCAVSGHSISHDHAWSWVRQPPGEGLEWIGFISYSGITNYNPSLQGRVTISRDNSKNTLYLQMNSLRAEDTAVYYCARSLARTTAMDYWGEGTLVTVSSASTKGPSVFPLAPSSKSTSGGTAALGCLVKDYFPEPVTVSWNSGALTSGVHTFPAVLQSSGLYSLSSVVTVPSSSLGTQTYICNVNHKPSNTKVDKKVEPKSCDKTHTCPPCPAPELLGGDSVFLFPPKPKDTLMISRTPEVTCVVVDVSHEDPEVKFNWYVDGVEVHNAKTKPREEQDNSTYRVVSVLTVLHQDWLNGKEYKCKVSNKALPKPIEKTISKAKGQPREPQVYTLPPSRDELTKNQVSLTCLVKGFYPSDIAVEWESNGQPENNYKTTPPVLDSDGSFFLYSKLTVDKSRWQQGNVFSCSVMHEALHNHYTQESLSLSP chain 2: DIQMTQSPSSLSASVGDRVTITCRASQDISSYLNWYQQKPGKAPKLLIYYTSRLHSGVPSRFSGSGSGTDFTFTISSLQPEDIATYYCQQGNTLPYTFGQGTKVEIK	3.6		790
